Key:
[1] = biological target: F protein of MARM 1129 (RSV A2 escape mutant generated against murine mAb 1129) (Respiratory Syncytial Virus strain A2) (UniProt P03420); experiment: cell-based or functional assay
[2] = biological target: F protein of MARM 151 (RSV A2 escape mutant generated against murine mAb 151) (Respiratory Syncytial Virus strain A2) (UniProt P03420); experiment: cell-based or functional assay
[3] = biological target: F protein of MARM 19 (RSV A2 escape mutant generated against human Fab 19) (Respiratory Syncytial Virus strain A2) (UniProt P03420); experiment: cell-based or functional assay
[4] = biological target: F protein of RSV B-1 (ATCC Cat. No. 1400) (Respiratory Syncytial Virus B, strain B-1) (UniProt O36634); experiment: cell-based or functional assay
[5] = biological target: F protein of RSV B-wash (ATCC Cat. No. VR-1580, strain 18537) (Respiratory Syncytial Virus B, strain 18537) (UniProt P13843); experiment: cell-based or functional assay
[6] = biological target: F protein of the IgG form of 58C5 MARM (N63K, M115K and E295G) (Respiratory Syncytial Virus strain A2) (UniProt P03420); experiment: cell-based or functional assay
[7] = biological target: F protein of the motavizumab MARM (K272E) (Respiratory Syncytial Virus strain A2) (UniProt P03420); experiment: cell-based or functional assay
[8] = biological target: T1, RSV strain A2 F protein (recombinant or native, not specified for Table 19) (Respiratory Syncytial Virus strain A2, UniProt P03420 26-524); experiment: ELISA, IgG titrated on captured RSV F protein; EC50 estimated
T1 construct: also called RSV F Protein

Question: What does the source list for IgG form of 58c5 (antibody)?
Answer: Average Plaque Count, 0.003 ug/ml [1]: 17.7 plaques; Average Plaque Count, 0.016 ug/ml [1]: 11.7 plaques; Average Plaque Count, 0.08 ug/ml [1]: 5.7 plaques; Average Plaque Count, 0.4 ug/ml [1]: 2.3 plaques; Average Plaque Count, 2 ug/ml [1]: 0 plaques; Average Plaque Count, 10 ug/ml [1]: 0 plaques; Plaque reduction rate, 0.003 ug/ml [1]: 21%; Plaque reduction rate, 0.016 ug/ml [1]: 47%; Plaque reduction rate, 0.08 ug/ml [1]: 74%; Plaque reduction rate, 0.4 ug/ml [1]: 90%; Plaque reduction rate, 2 ug/ml [1]: 100%; Plaque reduction rate, 10 ug/ml [1]: 100%; Average Plaque Count, 0.003 ug/ml [2]: 151 plaques; Average Plaque Count, 0.016 ug/ml [2]: 128 plaques; Average Plaque Count, 0.08 ug/ml [2]: 112 plaques; Average Plaque Count, 0.4 ug/ml [2]: 64.7 plaques; Average Plaque Count, 2 ug/ml [2]: 15.3 plaques; Average Plaque Count, 10 ug/ml [2]: 0 plaques; Plaque reduction rate, 0.003 ug/ml [2]: 0%; Plaque reduction rate, 0.016 ug/ml [2]: 15%; Plaque reduction rate, 0.08 ug/ml [2]: 26%; Plaque reduction rate, 0.4 ug/ml [2]: 57%; Plaque reduction rate, 2 ug/ml [2]: 90%; Plaque reduction rate, 10 ug/ml [2]: 100%; Average Plaque Count, 0.003 ug/ml [3]: 143 plaques; Average Plaque Count, 0.016 ug/ml [3]: 135 plaques; Average Plaque Count, 0.08 ug/ml [3]: 89.3 plaques; Average Plaque Count, 0.4 ug/ml [3]: 72 plaques; Average Plaque Count, 2 ug/ml [3]: 16.7 plaques; Average Plaque Count, 10 ug/ml [3]: 0.7 plaques; Plaque reduction rate, 0.003 ug/ml [3]: 8%; Plaque reduction rate, 0.016 ug/ml [3]: 14%; Plaque reduction rate, 0.08 ug/ml [3]: 42.7%; Plaque reduction rate, 0.4 ug/ml [3]: 53.8%; Plaque reduction rate, 2 ug/ml [3]: 89%; Plaque reduction rate, 10 ug/ml [3]: 100%; Average Plaque Count, 0.003 ug/ml [4]: 11.7 plaques; Average Plaque Count, 0.016 ug/ml [4]: 9.3 plaques; Average Plaque Count, 0.08 ug/ml [4]: 4 plaques; Average Plaque Count, 0.4 ug/ml [4]: 0.3 plaques; Average Plaque Count, 2 ug/ml [4]: 0 plaques; Average Plaque Count, 10 ug/ml [4]: 0 plaques; Plaque reduction rate (%), 0.003 ug/ml [4]: 5%; Plaque reduction rate (%), 0.016 ug/ml [4]: 24%; Plaque reduction rate (%), 0.08 ug/ml [4]: 67.5%; Plaque reduction rate (%), 0.4 ug/ml [4]: 97.6%; Plaque reduction rate (%), 2 ug/ml [4]: 100%; Plaque reduction rate (%), 10 ug/ml [4]: 100%; Average Plaque Count, 0.003 ug/ml [5]: 20.7 plaques; Average Plaque Count, 0.016 ug/ml [5]: 16.3 plaques; Average Plaque Count, 0.08 ug/ml [5]: 7.7 plaques; Average Plaque Count, 0.4 ug/ml [5]: 1.3 plaques; Average Plaque Count, 2 ug/ml [5]: 0 plaques; Average Plaque Count, 10 ug/ml [5]: 0 plaques; Plaque reduction rate (%), 0.003 ug/ml [5]: 21%; Plaque reduction rate (%), 0.016 ug/ml [5]: 38%; Plaque reduction rate (%), 0.08 ug/ml [5]: 71%; Plaque reduction rate (%), 0.4 ug/ml [5]: 95%; Plaque reduction rate (%), 2 ug/ml [5]: 100%; Plaque reduction rate (%), 10 ug/ml [5]: 100%; ED50, neutralization of IgG 58C5 MARM [6]: > 66.7 nM; Plaque reduction rate, IgG 58C5 MARM, 3.2 ng/ml [6]: 0%; Plaque reduction rate, IgG 58C5 MARM, 16 ng/ml [6]: 0%; Plaque reduction rate, IgG 58C5 MARM, 80 ng/ml [6]: 0%; Plaque reduction rate, IgG 58C5 MARM, 400 ng/ml [6]: 0%; Plaque reduction rate, IgG 58C5 MARM, 2000 ng/ml [6]: 0%; Plaque reduction rate, IgG 58C5 MARM, 10000 ng/ml [6]: 3.3%; ED50, neutralization of Motavizumab MARM [7]: 0.173 nM; Plaque reduction rate, Motavizumab MARM, 3.2 ng/ml [7]: 1.5%; Plaque reduction rate, Motavizumab MARM, 16 ng/ml [7]: 43%; Plaque reduction rate, Motavizumab MARM, 80 ng/ml [7]: 74.6%; Plaque reduction rate, Motavizumab MARM, 400 ng/ml [7]: 92%; Plaque reduction rate, Motavizumab MARM, 2000 ng/ml [7]: 95.8%; Plaque reduction rate, Motavizumab MARM, 10000 ng/ml [7]: 97.6%

B1: Motavizumab (antibody, V domains shown)
VH: QVTLRESGPALVKPTQTLTLTCTFSGFSLSTAGMSVGWIRQPPGKALEWLADIWWDDKKHYNPSLKDRLTISKDTSKNQVVLKVTNMDPADTATYYCARDMIFNFYFDVWGQGTTVTVSS
VL: DIQMTQSPSTLSASVGDRVTITCSASSRVGYMHWYQQKPGKAPKLLIYDTSKLASGVPSRFSGSGSGTEFTLTISSLQPDDFATYYCFQGSGYPFTFGGGTKVEIK
Question: With B1 as the molecule, how does the EC50 [8] read?
Answer: The EC50 was about 0.027 nM.

— US20110076268A1 (CRUCELL HOLLAND B V, published 2011)
